According to patent US7115556B2, “Use of anti-prolactin agents to treat proliferative conditions” (Greenville Hospital System, priority 1998, dated 2006):

Legend:
[1] = test system: T47D human breast cancer cells; experiment: Cell proliferation assay, cell counting; format: cell-based; details: FIGS. 5A-B
Method: Cell proliferation assays. hPRLA was tested for its ability to inhibit breast cancer cell proliferation in tissue culture. The human breast cancer cells were grown in corresponding culture media according to ATCC recommendations. Cells were maintained at 37° C. in a humidified atmosphere of 5% CO2 in air. The assay conditions were essentially as described by Ginsburg and Vonderharr (1995, Cancer Res. 55:2591–2595). For individual growth experiments, cells were plated in 12 well culture plates at a density of approximately 2×10^4 /ml, 1 ml/ well. Cells were then allowed to attach for one day (T-47D, MCF-7, HTB19, and HTB20 cells, except for HTB 123, which is a suspension cells), then the overlying media was removed and changed to serum-free conditions with media containing ITS^+ (insulin-transferring-selenium-BSA-linoleic acid culture supplement; Collaborative Research Bedford, Mass.). Varying concentrations of hPRL alone or in combination with hPRLA were introduced. After an additional three days in culture, cells were harvested after brief trypsinization and counted in a cell counter.

rat Nb2 T lymphoma cells = details: Goffin et al., 1994; cited from earlier work
[2] = test system: tyrosine phosphorylation of STAT proteins in T47-D cells; experiment: Tyrosine phosphorylation of STAT proteins in T47-D cells (Example 10); format: cell-based, human
Method: Tyrosine Phosphorylation of STAT Proteins in T47-D cells. This assay is designed to examine the effects of HPRL and hPRL-G129R on signal transduction using T47-D cells as model target cells. Briefly, T47-D cells were plated in 12-well plates. After pre-incubation in serum-free medium for 2–3 hours, cells were exposed to various concentrations of hPRL or hPRL-G129R or a combination of hPRL and hPRL-G129R in serum-free medium. The cells were incubated for 15 min at 37° C., washed once with PBS, and lysed in 200 μl lysis buffer (50 mM Tris-HCl, pH 6.8, 1% SDS, 1% β-mecaptoethanol, 0.1M DTT, 5% sucrose, 100 μM sodium orthovanadate, and 0.6% bromophenol blue). Thirty microliters of cell lysate are then subjected to 4–12.5% SDS-PAGE using the Bio-Rad Protein II system. After electrophoresis, the gels were transferred to a Hybond-ECL membrane (Amersham, Ill.) at 100 volts constant voltage for 2 hrs. Blots were incubated in a blocking solution of 4% BSA (Boehringer Mannheim, Ind.) in rinsing buffer (10 mM Tris-HCl pH 7.5, 75 mM NaCl, 0.1% Tween 20, 1 mM EDTA) for 2 hrs and subsequently washed twice with rinsing buffer for 15 min. Blots were incubated with horseradish peroxidase (HRP)-conjugated antiphosphotyrosine antibody PY20 (Amersham, Ill.) at a concentration of 0.1 μg/ml in the blocking solution for 1 hr. […] Blots were then exposed to X-ray film and developed using standard procedures (Kodak, Rochester, N.Y.).

[3] = test system: T-47D human breast cancer cells; experiment: TUNEL assay, T-47D; format: cell-based
Method: Cell Culture. T-47D cells obtained from ATCC were grown in RPMI 1640 (phenol red free), supplemented with 10% FBS (GIBCO BRL). BT-474 cells were grown in RPMI 1640 medium (phenol red free) supplemented with 10% FBS and ATCC recommended supplements. MCF-7 cells were grown in DMEM medium (phenol red free), supplemented with 10% FBS. The cells were grown at 37° C. in a humid atmosphere in the presence of 5% CO2. The MDA-MB-134 cells were grown in Leibovitz's L-15 medium supplemented with 20% FBS and grown in CO2 free atmosphere. The breast cancer cells were trypsinized (0.02% Trypsin—EDTA) and grown in their respective media (phenol red free) supplemented with 10% CSS (Charcoal stripped serum) for a week. Subsequently the cells were trypsinized again and plated onto an 8 chambered slide system (Lab Tek II) at a confluence of 60–70% per chamber. The next day treatments were performed on the breast cancer cells using their respective media(phenol red free), supplemented with 1% CSS. The MDA-MB-134 VI cells were grown in phenol red containing medium, but with the same serum conditions as the other breast cancer cells.
Terminal deoxynucleotidly transferase mediated dUTP nick end labeling (TUNEL) assay. Nicks of the fragmented DNA are labeled at their 3-OH ends. The fluorescein-labeled dUTP is incorporated at the 3-OH ends by using the enzyme terminal deoxynucleotidyl transferase. After the assigned period of treatment the chambers were dismantled as per the manufacturer's instructions and the TUNEL assay (Apoptosis detection system, Fluorescein- Promega) was performed as per the manufacturer's instructions. The slide was examined under a FITC filter using an Olympus IX 70 microscope system.

B1: hPRL-G129R: variant of human prolactin having a substitution of the glycine at position 129 with an arginine residue; prolactin receptor antagonist (protein)
chain: LPICPGGAARCQVTLRDLFDRAVVLSHYIHNLSSEMFSEFDKRYTHGRGFITKAINSCHTSSLATPEDKEQAQQMNQKDFLSLIVSILRSWNEPLYHLVTEVRGMQEAPEAILSKAVEIEEQTKRLLERMELIVSQVHPETKENEIYPVWSGLPSLQMADEESRLSAYYNLLHCLRRDSHKIDNYLKLLKCRIIHNNNC
Q: What does the source list for B1?
A: proliferation of T47D cells relative to untreated control cultures [1]: comparable inhibitory effect; activity in Nb2 proliferation assay (rat Nb2 T lymphoma cells): weak agonist; inhibition of STAT protein phosphorylation induced by hPRL ([2]; 5:1 ratio (500 ng/ml hPRL-G129R, 100 ng/ml hPRL)): completely inhibited; stimulating STAT protein phosphorylation ([2]; T47-D cells, hPRL-G129R alone (100 ng/ml, FIG. 13)): not active; block of signal transduction (STAT phosphorylation) induced by hPRL ([2]; added together with hPRL): block the signal transduction induced by hPRL in a dose dependent manner; DNA fragmentation after 2 hours of treatment ([3]; 50 ng/ml, 2 hours): apparent; apoptosis at physiological concentration ([3]; 50 ng/ml, 24 h): apoptosis occurs; induction of apoptosis DNA fragmentation ([3]; 250 ng G129R, 24 hours): induced apoptosis; competition between G129R and hPRL on DNA fragmentation ([3]; 1:1 ratio (125 ng/ml each)): able to compete with hPRL; apoptosis (DNA fragmentation), dose response ([3]; 24 h treatment): induced apoptosis in a dose dependent manner
